Experiment: yeast display, Sf9 membrane polyspecificity reagent, FACS + sequencing; frameworks hold sequencing errors
Summary of the method: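 Using colony PCR, genes from sorted yeast display clones were amplified, then sequenced on MiSeq at 2 × 250 and filtered by CDR length. The clones had been stained with 10% biotinylated, detergent-solubilized Sf9 membrane reagent for 1 hour at 4 °C and sorted by FACS into low and high (top ~1%) gates on anti-HA and streptavidin fluorescence. Polyreactivity labels come from the gate of origin.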

| Sequence | polyreactivity (PSR sort gate) |
| --- | --- |
| QVQLVESRGGLLQAGGSLRLSCAASGIIFGHYDMGWYRQAPGKEWELVAAITFTGDSTYYADSVKGRFTISRDNAKHTVYLQMNSLKPEDTAVYYCAAETPVPWGSWGYDYWGQGTQVTVSS | low polyreactivity |
| QVHLVESGGGLVQAGGSLRLSCAASGIISGGNAMGWYRQAPGKDRELVASINSGGSTNYADSVKGRFTISRDNALNSLYLKMNSLKPDDTAVYYGAGDYIDSTAYDYWGQGTKVTVSS | low polyreactivity |
| QVQLVESGGCLVQAGGSLRLSCAASGRISGFNAMGWYRQAPGKERELVAANSYRGGSTYADSVKGRFTISRVNAKNTVYLQMNSLKPEDTAVYYCAAQSYWTFHTYYYWGQGTQVTVSS | low polyreactivity |
| QVQLVESGGGLVQAGGSLRLSCAASGSTFTSNVMGWYRQAPGKERELVAAISTNGGRTYYADSVKGRFTISRDNAKNTVYLQMNSLKPEDTAVYYCAASLPRPGIGGRDYWGQGTQVTVSS | low polyreactivity |
| QVQLVESGGGLVQAGGSLRLSCAASGFTFSRNVMGWYRQAPGKERELVADITLSGASTYYADSVKGRFTISRDNAKNTVYLQMNSLKPEDTAVYYCAADPYHWRWGWRLDYWGQGTQVTVSS | low polyreactivity |
| QVQLVESGGGLVQAGGSLRLSCAASGFIFGNYVMGWYRQAPGKERELVAAITNGGGNTYYADSVKGRFTISRDNAKNTVYLQMNSLKPEDTAVYYCHPLRYYYWGQGTQVTVSS | high polyreactivity |
| QDQLVESGGGLVQAGGSLRLSCAASGRTFPYKAMGWYRQAPGKERELVAAISYAGGRTYYADSVKGRFTISRDTAKNTVYLQMNSLKPEDTAVYYCYALGSGREDDYWGQGTQVTVSS | high polyreactivity |
| QVQLVESGGGLVQAGGSLRLSCAASGSIFPTNAMGWYRQAPGKERELVAAITSGGGTNYADSVMGRFTISRDNAKNTVYLQMNSLKTEDTAVYYCAADRYVEYGYWGQGTQVTVSS | low polyreactivity |
| QVQLVESGGGLVQAGGSLRLSCAASGSIFHYNAMGWSRQAPGKERELVAAISRGGSTHYADSVKGRFTISRDNAKNTVYLQMNSLKPEDTAVYYCATVQVVGPWSYRKLDYCGQGTQVTVSS | high polyreactivity |
| QVQLVESGGGLVQAGGSLRLSCAASGRTFGYNAMGWYIQAPGKERELVAAINWSGASTYYADSVKGRFTISRDNAKNTVYLQMNSLKPEDTAVYYCAADYSYIYGFDYWGQGTQVTVSS | low polyreactivity |
| QVQLVESGGGLVQAGGSLRLSCAASGFTLSSNPMGWNRQEPGKETELVAAISFNSTSTYYADSVKGRFTISRDNAKNTVYLQMKSLNPEDTAVYYCAADVPRVQSEPEYDYWGQGTQVTVSS | low polyreactivity |
| QVQLVESGGGLVQAGGSLRLSCAASGLIFKDYAMGWYRQAPGKERELVAAISSSGGSTYYADSVKGRFTISRDNAKNTVYLQMNSLKPEDTAVYYCAARSFRYYSDYGYWGQGTQVTVSS | high polyreactivity |
| QVQHVESGGGLVQAGGSLRLSCASSGRIFPTNAMGWSRQAPGKDRELVASITRSGSTYYADSVKGRFTISRDNAKNTVYLQMNSLKPEDTAVYNCAAYAYIFMDWGGYPYYLYEYEYLGQGTQVTVSS | low polyreactivity |
| QVQLVESGGGLVQAGGSLRLSCAASGGIFSAYAMGWSRQAPGKERELVAVINGSGSNTYYADSVKGRFTISRDNAKNTVYLQMNSLKPEDTAVYYCAARVYVSRSKRLNYWGQGTQVTVSS | high polyreactivity |
| QVQLVESGGGLVQAVGSLRLSCAASGFTFGRYAMGWYIQAPAKEREFVASISARGGNTFYADSVKGRFTISRDNAKNTVYLQMNSLKPEDTAVYYCNAYYLAEYDYWGQGTQVTVSS | high polyreactivity |
| QVQLQESGGGLVQAGGSLRLSCAASGNIYDADIMGWYRQAPGKERELVTSITDGGSTNYADSVKGRFTISRDNAKNTVYLQMNSLKPEDTAVYYSAAIAYADIPTSFDYNSDYSYWGQGTQVTVSS | low polyreactivity |
| QVHLVESGGGLVQAGGSLRLSCAASGRTFRYNAMGWYRQAPGKERELVATISSSGGSTSYADSVKGRFTISRDNAKNTVYLQMNSLKPEDTAVYYCNKRRLVAPGNGMDSWGQGTQVTVSS | low polyreactivity |
| QVQLVESGGGLVQAGGSLRLSCAASGRIFSSNAMGWYRQAPGTERELVASLSSTGSPKYADSVKGRFTISRDNAKNTVYLQMNSLIPEDTAVYYCAATQVRRGPAWGRDYWGQGTQVTVSS | low polyreactivity |
| QVQHEESGGGLVQAGGSLRLSCAASGSIIRYYPMGWYRQATGKQRELVAAISRDDSRTYYADSVRGRFTISLDNAKNTVYLQMNSLKPEDTAVYYCAADSSRYTRYLYYYWGQGTQVTVSS | high polyreactivity |
| QVQLVESGGGLVHAGGSLRLSCAASGFIFFSNAMGWYRQAPGKERELVATISTSSGSTYADSVKGRFTNSRDNAKNTVYLQMNSLKPEDTAVYYCAADTQGYDYDYWGQGTQVTVSS | low polyreactivity |
| QVQLVETGGGLVQAGGSLRLSCAASGLIFSYKAMGWYRQAPGKERELVGAISRGGSTYYADSVKGRFTISRDNAKNTVYLQMNSLKRVDTAVYYCAADFYGWVDYWGQGTQVTVSS | high polyreactivity |
| QVQLVESGGGLVQAGGSLRLSCAASGFIFYKYAMGWYRQAPGKERELVAAITSSAGSTYYADSVKGRFTISRDNAKNTVYLQMNSLKPEDTAVYYCAADFHVDYVYWGQGTQVTVSS | high polyreactivity |

| Sequence | polyreactivity (PSR sort gate) |
| --- | --- |
| QVQLVESGGGLVQAGGSLRLSCAASGFTFAYYVMGWYIQAPGKETELVAAISISGARTYYAESVKGRFTISRDNSKNTVYLQMNRLKPEDTAVYYCAADRRTDGHDYWGLGTQVTVSS | high polyreactivity |
| QDQLVESGGGLVQEGGSLRLSCAASGRIFYFNARGWYRQAPGKERELVADISSGGRTNYADSVKGRFTFSRDNAKNSVYVQMNSEKPEDTAVYYCNSEPYTSSGGYRGYDFDYWGQGSQVTVSS | low polyreactivity |
| QVQLVESGGGLVQAGGSLRLSCAASGSTFHLYAMGWYRQAPGKERELVAAITRGGGSTYYADSVKGRFTISRDYAKNTVYLQMNSLKPEDTAVYYCNARGPSSYRYEYWGQGTQVTVSS | high polyreactivity |
| QVQLVESGGGLVQAGGSLRLSCAASGIIFVYYDMGWYRQAPGKERELVASISRGGSTYYADSVKGRFTISRDNAKNTVYLQMNSLKPEDTAVYYCAAVPSYLGYWGQGTQVTVSS | high polyreactivity |
| QVQLVESGGGLVQAGGSLRLSCAASGITFYLYTMGWYRQAPGKERELVAAISWRGGGTYYADSVKGRFTISRDNAKNTVYLQMNSLKPEDTAVYYCATVRTYARNDYWGQGTQVTVSS | high polyreactivity |
| QVQLVESGGGLVQAGGSLRLSCAASGFIFAQNAMGWYRQAPGKEREFVAAISSRGSRTYYADSVKGRFTISRDNAKNTVYLQMNSLKPEDTAVYYCAASRRTRSMNYWGQGTQVTVSS | high polyreactivity |
| QVQLVESGGGLVQAGGSLRLICAASGSIFPPYAMGWYRQAPGKDREFVAAITISGDSTYYADSVKGRFTISRDNAKNTVYLQMNSLKPEDTAVYYCNADSYAFQYTWGEAYYGLYGYWGQGTQVTVSS | low polyreactivity |
| QVQLVESGGGLVQAGGSLRLSCAASGSIFEYYPMGWYRQAPGKERELVAAISWSGGSTYYADSVKGRFSISRDNAKNTVYFQMNSLKPEDTAVYYCAARGYWGQGTQVTVSS | low polyreactivity |
| QVQLVESGGGLVQAGGSLRLSCAASGRIFCFNAMGWYRQAPGKERELVAAISGTGGSTYYADSEKGRFTISRDNAKNTVYLQMNSLKPEDTAVYYCAAFYNYYGQRYYYWGQGTQVTVSS | high polyreactivity |
| QVQLVESGGGLVQAGGSLRLSCAASGFIFSGNAMGWYRQAPGKERELVAAISTSGGRTYYADSVKGRFTISRDNAKNSDYLQMKSLKPEDTAVYYFNRAPWYRYTRDKYEYWGQGTQVTVSS | high polyreactivity |
| QLQLEESGGGLVQAGGSLRLSCAASGFIFYSNAMGWYRKAPGKERELVASIPGDGGTTYYADSVKGRFTISRDNAKNTVYLQMNSLKPEDTAFYYCAKDYIYRGYYTDFRYEDYEYWGQGTQVTVSS | low polyreactivity |
| QVQLVESGGGLVQAGGSLRLSCAASGRIFAYNARGWYRQAPGKERELVADISSGGNTYYADSVKGRFTISRDNAKNTVYLQMNSLKPEDTAVYYCAADIAWYTHYHRIFDYWGQGTQVTVSS | low polyreactivity |
| QVQLVESGGGLVQAGGSLRLSCAASGSTFDPNAMGWYRQAPGKERELVAVIDSGDGTTYYADSVKGRFTISRDNAKNTVYLQMNSLKPEDTAVYYCAVDESTSYYDDHEDYWGQGTQVTVSS | low polyreactivity |
| QVQLQESGGGLVQAGCSLRLSCAASGTISVHASMGWYRQAPGKERELVAGITDGANTYYADSVKGRFTISRDNSKNTVYLQMNSLKPEDTAVYYCAAYYGTEVHFTYWGQGTQVTVSS | low polyreactivity |
| QVQLVESGRGLVHAGGSLLLSCAASGSTFGWYAMGRFIQARGKEREFVAAISWSGTSTYYADSVKGRFTISRDNAKNTFDLQMNSLKPEDTAVYYCASRWVVFTEREDYWGQGTQVTVSS | low polyreactivity |
| QVQLVESGGGLVQAGGSLRLSCAASGFTFSYNAMGWYRQAPGKERELVAAISSGGRTHYADSVKGRFTISRDNAKNTVYLQMNILKPEDTAVYYCNAQKYPRYSRTSGRNYNYWGQGTQVTVSS | high polyreactivity |
| QVQLVESGGGLVQAGGSLSLICAASGFIYYTMGWYRQAPGKEWELVAAISRSGGSTYYADSVKGRFTISRDNAKNTVYLQMNSLKPEDTAVYYCAARRPYRDGYDYWGQGTQVTVSS | high polyreactivity |
| QVQLVESGGGLVQAGGSLRLSCAASGRTFDVYAMGWYRQAPGKERELVAVIRGRAGSTYYADSVKGRFTISRDNAKNTVYLQMNSLKPEDTAVYYCAAAKYVRRGLRAWRGDEYDYWGQGTQVTVSS | high polyreactivity |
| QVQLVESGGGLVQAGGSLRLSCAASGSTFAGNGMGWYRQAPGKERELVAGIDVTGGSTYYADSVKGRFTISRDNAKNTVYLQMNSLKPEDTAVYYCNARYVYHSSFAGFDYWGQGTQVTVSS | low polyreactivity |
| QVQLVESGGGLVQAGGSLRLSCAASGSIFVGYVMGWYRQAPGKERELVAAISKSGSRTYYADSVKGRFTISRDNAKYTVYLQMNSLKPEDTAVYYCATAGYDADDYWGQGTQVTVSS | high polyreactivity |
| QVQLVESGGGLVQAGGSLRLSCAASGSIFINYVMGWYRQAPGKERELVAAISSIGDSTYYADSVKGRFTISRDNAKNTVYLQMNSLKPEDTAVYYCNAEIPSLKASPLYRYDYWGQGTKVTVSS | high polyreactivity |
